Numbered stars: 1 amine (or outer) side, 2 acyl side, 3 side chain; on linkers, the order of the positions; unused ones are H or OH. Bridge positions count the residues as written; N and C are the ends. Square brackets hold non-standard residues; d marks the D form. MeKCOpipzaa = N6-(4-(carboxymethyl)piperazine-1-carbonyl)-N2-methyl-L-lysine, CN([C@@H](CCCCNC(=O)N1CCN(CC(=O)[*:3])CC1)C(=O)[*:2])[*:1]; KCOpipzaa = N6-(4-(carboxymethyl)piperazine-1-carbonyl)-L-lysine, O=C(NCCCC[C@H](N[*:1])C(=O)[*:2])N1CCN(CC(=O)[*:3])CC1; 3Pal(6-Ph) = N[C@@H](Cc1ccc(-c2ccccc2)nc1)C(=O)O; Phe(4-COOH) = N[C@@H](Cc1ccc(C(=O)O)cc1)C(=O)O; Pro(trans-4-F) = O=C(O)[C@@H]1C[C@@H](F)CN1; Bip = N[C@@H](Cc1ccc(-c2ccccc2)cc1)C(=O)O; Pro(cis-4-F) = O=C(O)[C@@H]1C[C@H](F)CN1; Phe(4-F) = N[C@@H](Cc1ccc(F)cc1)C(=O)O; Pro(4,4-F2) = O=C(O)[C@@H]1CC(F)(F)CN1; 4Pal = N[C@@H](Cc1ccncc1)C(=O)O; βAla = NCCC(=O)O
What was measured:
[1] = biological target: T1, BMP4 (Homo sapiens, UniProt P12644); experiment: BMP4 signal transduction inhibitory activity: SMAD1 phosphorylation by BMP4 stimulus, AlphaLISA SureFire, A549 cells; format: cell-based; details: inhibition of SMAD1 phosphorylation by BMP4 stimulus, A549 cells; peptides of Synthesis 2; classes A-C, ND
T1 sequence (P12644 293-408): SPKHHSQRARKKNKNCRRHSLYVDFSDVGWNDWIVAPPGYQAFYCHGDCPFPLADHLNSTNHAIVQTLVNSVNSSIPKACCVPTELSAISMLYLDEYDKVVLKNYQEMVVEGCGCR

[2] = biological target: T2, BMP7 (Homo sapiens, UniProt P18075); experiment: BMP7 signal transduction inhibitory activity: SMAD1 phosphorylation by BMP7 stimulus, A549 cells; format: cell-based; details: inhibition of SMAD1 phosphorylation by BMP7 stimulus, A549 cells; peptides of Synthesis 2; classes A-D, ND
T2 sequence (P18075 293-431): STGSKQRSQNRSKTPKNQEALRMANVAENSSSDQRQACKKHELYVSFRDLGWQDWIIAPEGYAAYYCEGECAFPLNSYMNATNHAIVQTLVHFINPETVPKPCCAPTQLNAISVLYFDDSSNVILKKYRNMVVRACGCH
Outline: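 A549 cells were stimulated with 10 nM BMP7, and peptide inhibition of signalling was measured as SMAD1 phosphorylation. Peptides were tested at three concentrations, in sets ranging from 1–100 nM to 100–1,000 nM, or as eight-point 1/3 dilution series starting at 100 nM or 1,000 nM.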

Substance	aLISA BMP4 [1]	aLISA BMP7 [2]
79 ({CH2CO}-E[KCOpipzaa]VYVDR[Bip][KCOpipzaa]YP[Bip][Phe(4-F)][Phe(4-COOH)][Phe(4-COOH)]SCG-NH2; thioether N-17; not fully specified) [compound 79]	C (showed an inhibitory activity of less than 50% in 0.2 nM-addition zone and showed an inhibitory activity of 50% or more in 2 nM-addition zone were defined as B or C)	D (showed less than 50% of inhibitory activity in 100 nM-addition zone)
80 ({CH2CO}-E[KCOpipzaa]VYVDR[Bip][KCOpipzaa]YP[Bip][Phe(4-F)][Phe(4-COOH)][4Pal]SCG-NH2; thioether N-17; not fully specified) [compound 80]	A (showed an inhibitory activity of 50% or more in a zone to which the peptide was added to in an amount of 0.2 nM)	C (showed less than 50% of inhibitory activity in 10 nM-addition zone and showed 50% or more of inhibitory activity in 100 nM-addition zone)
81 ({CH2CO}-E[KCOpipzaa]VYVDR[Bip][MeKCOpipzaa]YP[Bip][Phe(4-F)][Phe(4-COOH)][4Pal]SCG-NH2; thioether N-17; not fully specified) [compound 81]	A (showed an inhibitory activity of 50% or more in a zone to which the peptide was added to in an amount of 0.2 nM)	C (showed less than 50% of inhibitory activity in 10 nM-addition zone and showed 50% or more of inhibitory activity in 100 nM-addition zone)
85 ({CH2CO}-ERVYVDR[Bip]SYV[Bip]Y[Phe(4-COOH)][Phe(4-COOH)]SC[βAla][dE]-OH; thioether N-17; not fully specified) [compound 85]	A (showed an inhibitory activity of 50% or more in a zone to which the peptide was added to in an amount of 0.2 nM)	C (showed less than 50% of inhibitory activity in 10 nM-addition zone and showed 50% or more of inhibitory activity in 100 nM-addition zone)
92 ({CH2CO}-EKVYVDK[Bip]YYV[Bip][Phe(4-F)][Phe(4-COOH)][4Pal]SCG-NH2; thioether N-17; not fully specified) [compound 92]	C (showed an inhibitory activity of less than 50% in 0.2 nM-addition zone and showed an inhibitory activity of 50% or more in 2 nM-addition zone were defined as B or C)	C (showed less than 50% of inhibitory activity in 10 nM-addition zone and showed 50% or more of inhibitory activity in 100 nM-addition zone)
94 ({CH2CO}-A[KCOpipzaa]VYV[KCOpipzaa]R[Bip]PYV[Bip]Y[Phe(4-COOH)][Phe(4-COOH)]SC[βAla][dE]-OH; thioether N-17; not fully specified) [compound 94]	A (showed an inhibitory activity of 50% or more in a zone to which the peptide was added to in an amount of 0.2 nM)	C (showed less than 50% of inhibitory activity in 10 nM-addition zone and showed 50% or more of inhibitory activity in 100 nM-addition zone)
95 ({CH2CO}-ERVYVDR[Bip]SYP[Bip]Y[Phe(4-COOH)][Phe(4-COOH)]SC[βAla][dE]-OH; thioether N-17; not fully specified) [compound 95]	A (showed an inhibitory activity of 50% or more in a zone to which the peptide was added to in an amount of 0.2 nM)	C (showed less than 50% of inhibitory activity in 10 nM-addition zone and showed 50% or more of inhibitory activity in 100 nM-addition zone)
96 ({CH2CO}-ERVYVDR[3Pal(6-Ph)]SYP[Bip]Y[Phe(4-COOH)][Phe(4-COOH)]SC[βAla][dE]-OH; thioether N-17; not fully specified) [compound 96]	A (showed an inhibitory activity of 50% or more in a zone to which the peptide was added to in an amount of 0.2 nM)	C (showed less than 50% of inhibitory activity in 10 nM-addition zone and showed 50% or more of inhibitory activity in 100 nM-addition zone)
97 ({CH2CO}-ERVYV[KCOpipzaa]R[Bip]SYP[Bip]Y[Phe(4-COOH)][Phe(4-COOH)]SC[βAla][dE]-OH; thioether N-17; not fully specified) [compound 97]	A (showed an inhibitory activity of 50% or more in a zone to which the peptide was added to in an amount of 0.2 nM)	B (showed less than 50% of inhibitory activity in 1 nM-addition zone and showed 50% or more of inhibitory activity in 10 nM-addition zone)
98 ({CH2CO}-ERVYV[KCOpipzaa]R[3Pal(6-Ph)]SYP[Bip]Y[Phe(4-COOH)][Phe(4-COOH)]SC[βAla][dE]-OH; thioether N-17; not fully specified) [compound 98]	A (showed an inhibitory activity of 50% or more in a zone to which the peptide was added to in an amount of 0.2 nM)	C (showed less than 50% of inhibitory activity in 10 nM-addition zone and showed 50% or more of inhibitory activity in 100 nM-addition zone)
99 ({CH2CO}-E[KCOpipzaa]VYVDR[Bip]SYP[Bip]Y[Phe(4-COOH)][Phe(4-COOH)]SC[βAla][dE]-OH; thioether N-17; not fully specified) [compound 99]	A (showed an inhibitory activity of 50% or more in a zone to which the peptide was added to in an amount of 0.2 nM)	C (showed less than 50% of inhibitory activity in 10 nM-addition zone and showed 50% or more of inhibitory activity in 100 nM-addition zone)
100 ({CH2CO}-E[KCOpipzaa]VYV[KCOpipzaa]R[Bip]SYP[Bip]Y[Phe(4-COOH)][Phe(4-COOH)]SC[βAla][dE]-OH; thioether N-17; not fully specified) [compound 100]	A (showed an inhibitory activity of 50% or more in a zone to which the peptide was added to in an amount of 0.2 nM)	C (showed less than 50% of inhibitory activity in 10 nM-addition zone and showed 50% or more of inhibitory activity in 100 nM-addition zone)
101 ({CH2CO}-E[KCOpipzaa]VYV[KCOpipzaa]R[3Pal(6-Ph)]SYP[Bip]Y[Phe(4-COOH)][Phe(4-COOH)]SC[βAla][dE]-OH; thioether N-17; not fully specified) [compound 101]	A (showed an inhibitory activity of 50% or more in a zone to which the peptide was added to in an amount of 0.2 nM)	C (showed less than 50% of inhibitory activity in 10 nM-addition zone and showed 50% or more of inhibitory activity in 100 nM-addition zone)
102 ({CH2CO}-E[KCOpipzaa]VYV[KCOpipzaa]R[Bip]SYV[Bip]Y[Phe(4-COOH)][Phe(4-COOH)]SC[βAla][dE]-OH; thioether N-17; not fully specified) [compound 102]	C (showed an inhibitory activity of less than 50% in 0.2 nM-addition zone and showed an inhibitory activity of 50% or more in 2 nM-addition zone were defined as B or C)	C (showed less than 50% of inhibitory activity in 10 nM-addition zone and showed 50% or more of inhibitory activity in 100 nM-addition zone)
103 ({CH2CO}-ERV[Phe(4-COOH)]V[KCOpipzaa]R[Bip]SYP[Bip]Y[Phe(4-COOH)][Phe(4-COOH)]SC[βAla][dE]-OH; thioether N-17; not fully specified) [compound 103]	A (showed an inhibitory activity of 50% or more in a zone to which the peptide was added to in an amount of 0.2 nM)	A (showed 50% or more of inhibitory activity in a zone to which the peptide was added in an amount of 1 nM)
109 ({CH2CO}-ERVYVDR[Bip]PY[Pro(cis-4-F)][Bip]Y[Phe(4-COOH)][Phe(4-COOH)]SC[βAla][dE]-OH; thioether N-17; not fully specified) [compound 109]	C (showed an inhibitory activity of less than 50% in 0.2 nM-addition zone and showed an inhibitory activity of 50% or more in 2 nM-addition zone were defined as B or C)	C (showed less than 50% of inhibitory activity in 10 nM-addition zone and showed 50% or more of inhibitory activity in 100 nM-addition zone)
110 ({CH2CO}-ERVYVDR[Bip]PY[Pro(trans-4-F)][Bip]Y[Phe(4-COOH)][Phe(4-COOH)]SC[βAla][dE]-OH; thioether N-17; not fully specified) [compound 110]	A (showed an inhibitory activity of 50% or more in a zone to which the peptide was added to in an amount of 0.2 nM)	B (showed less than 50% of inhibitory activity in 1 nM-addition zone and showed 50% or more of inhibitory activity in 10 nM-addition zone)
111 ({CH2CO}-ERVYVDR[Bip]PY[Pro(4,4-F2)][Bip]Y[Phe(4-COOH)][Phe(4-COOH)]SC[βAla][dE]-OH; thioether N-17; not fully specified) [compound 111]	A (showed an inhibitory activity of 50% or more in a zone to which the peptide was added to in an amount of 0.2 nM)	C (showed less than 50% of inhibitory activity in 10 nM-addition zone and showed 50% or more of inhibitory activity in 100 nM-addition zone)
